According to US20030073218:

System: RR-Src peptide

GST-XD4 (glutathione S-transferase fusion of the XD4 fragment of v-Src, wild-type catalytic domain)
KM (mM) for protein substrate RR-Src, ATP saturated: 2.6 mM

GST-XD4(V323A, I338A)
KM (mM) for protein substrate RR-Src, ATP saturated: 3.1 mM
KM (mM) for protein substrate RR-Src, N^6-(cyclopentyl)ATP saturated: 2.1 mM
